B1: Complement factor H (Homo sapiens), P08603 (parent)
chain: MRLLAKIICLMLWAICVAEDCNELPPRRNTEILTGSWSDQTYPEGTQAIYKCRPGYRSLGNVIMVCRKGEWVALNPLRKCQKRPCGHPGDTPFGTFTLTGGNVFEYGVKAVYTCNEGYQLLGEINYRECDTDGWTNDIPICEVVKCLPVTAPENGKIVSSAMEPDREYHFGQAVRFVCNSGYKIEGDEEMHCSDDGFWSKEKPKCVEISCKSPDVINGSPISQKIIYKENERFQYKCNMGYEYSERGDAVCTESGWRPLPSCEEKSCDNPYIPNGDYSPLRIKHRTGDEITYQCRNGFYPATRGNTAKCTSTGWIPAPRCTLKPCDYPDIKHGGLYHENMRRPYFPVAVGKYYSYYCDEHFETPSGSYWDHIHCTQDGWSPAVPCLRKCYFPYLENGYNQNYGRKFVQGKSIDVACHPGYALPKAQTTVTCMENGWSPTPRCIRVKTCSKSSIDIENGFISESQYTYALKEKAKYQCKLGYVTADGETSGSITCGKDGWSAQPTCIKSCDIPVFMNARTKNDFTWFKLNDTLDYECHDGYESNTGSTTGSIVCGYNGWSDLPICYERECELPKIDVHLVPDRKKDQYKVGEVLKFSCKPGFTIVGPNSVQCYHFGLSPDLPICKEQVQSCGPPPELLNGNVKEKTKEEYGHSEVVEYYCNPRFLMKGPNKIQCVDGEWTTLPVCIVEESTCGDIPELEHGWAQLSSPPYYYGDSVEFNCSESFTMIGHRSITCIHGVWTQLPQCVAIDKLKKCKSSNLIILEEHLKNKKEFDHNSNIRYRCRGKEGWIHTVCINGRWDPEVNCSMAQIQLCPPPPQIPNSHNMTTTLNYRDGEKVSVLCQENYLIQEGEEITCKDGRWQSIPLCVEKIPCSQPPQIEHGTINSSRSSQESYAHGTKLSYTCEGGFRISEENETTCYMGKWSSPPQCEGLPCKSPPEISHGVVAHMSDSYQYGEEVTYKCFEGFGIDGPAIAKCLGEKWSHPPSCIKTDCLSLPSFENAIPMGEKKDVYKAGEQVTYTCATYYKMDGASNVTCINSRWTGRPTCRDTSCVNPPTVQNAYIVSRQMSKYPSGERVRYQCRSPYEMFGDEEVMCLNGNWTEPPQCKDSTGKCGPPPPIDNGDITSFPLSVYAPASSVEYQCQNLYQLEGNKRITCRNGQWSEPPKCLHPCVISREIMENYNIALRWTAKQKLYSRTGESVEFVCKRGYRLSSRSHTLRTTCWDGKLEYPTCAKR
partner: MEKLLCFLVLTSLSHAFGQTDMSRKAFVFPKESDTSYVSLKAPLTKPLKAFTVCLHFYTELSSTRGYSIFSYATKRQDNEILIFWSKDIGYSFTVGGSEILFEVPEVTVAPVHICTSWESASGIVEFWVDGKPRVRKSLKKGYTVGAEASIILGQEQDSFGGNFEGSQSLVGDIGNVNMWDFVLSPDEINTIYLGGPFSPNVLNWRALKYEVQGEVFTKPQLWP

Variants of: B1
Details: with crp_human CRP

| effect of a mutation on the interaction | Variant |
| --- | --- |
| with no effect | Y402H |

Variants of: B1
Details: with crp_human CRP
Remark: another data set of the same source

| effect of a mutation on the interaction | Variant |
| --- | --- |
| decreasing interaction strength | Y402H |

Reference: IntAct's records for PubMed 18786923
